Laboratory results from patent US20180086849A1 (Hoffmann-La Roche, published 2018).

T1: hu-MCSP(D3 domain)-avi-his (human, UniProt Q6UVK1 1582-2224, biotinylated where used for selection or for coupling to the SA chip)
T1 construct: also called human MCSP(D3 domain)-avi-his; human MCSP D3
T1 sequence: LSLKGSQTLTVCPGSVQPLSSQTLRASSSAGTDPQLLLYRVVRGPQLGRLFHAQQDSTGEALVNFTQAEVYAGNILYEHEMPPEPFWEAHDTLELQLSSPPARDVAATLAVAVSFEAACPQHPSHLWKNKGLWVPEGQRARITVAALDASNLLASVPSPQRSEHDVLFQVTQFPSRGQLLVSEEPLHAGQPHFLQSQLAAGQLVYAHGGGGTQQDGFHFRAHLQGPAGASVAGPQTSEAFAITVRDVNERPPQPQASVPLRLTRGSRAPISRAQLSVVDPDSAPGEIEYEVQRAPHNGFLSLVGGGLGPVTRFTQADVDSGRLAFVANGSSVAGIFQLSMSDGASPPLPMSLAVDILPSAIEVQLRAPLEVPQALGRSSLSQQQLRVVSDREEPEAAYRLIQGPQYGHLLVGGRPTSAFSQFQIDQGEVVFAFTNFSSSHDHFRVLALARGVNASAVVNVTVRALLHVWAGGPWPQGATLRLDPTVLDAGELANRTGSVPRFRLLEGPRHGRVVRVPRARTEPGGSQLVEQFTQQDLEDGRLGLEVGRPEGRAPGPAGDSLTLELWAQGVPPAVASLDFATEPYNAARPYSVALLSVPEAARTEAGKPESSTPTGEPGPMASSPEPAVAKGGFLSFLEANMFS

T2: cynomolgus MCSP D3 (cynomolgus, UniProt Q6UVK1 1582-2224 (human entry))
T2 construct: also called cynomolgus homologue; not shown: C-terminal tag
T2 chain: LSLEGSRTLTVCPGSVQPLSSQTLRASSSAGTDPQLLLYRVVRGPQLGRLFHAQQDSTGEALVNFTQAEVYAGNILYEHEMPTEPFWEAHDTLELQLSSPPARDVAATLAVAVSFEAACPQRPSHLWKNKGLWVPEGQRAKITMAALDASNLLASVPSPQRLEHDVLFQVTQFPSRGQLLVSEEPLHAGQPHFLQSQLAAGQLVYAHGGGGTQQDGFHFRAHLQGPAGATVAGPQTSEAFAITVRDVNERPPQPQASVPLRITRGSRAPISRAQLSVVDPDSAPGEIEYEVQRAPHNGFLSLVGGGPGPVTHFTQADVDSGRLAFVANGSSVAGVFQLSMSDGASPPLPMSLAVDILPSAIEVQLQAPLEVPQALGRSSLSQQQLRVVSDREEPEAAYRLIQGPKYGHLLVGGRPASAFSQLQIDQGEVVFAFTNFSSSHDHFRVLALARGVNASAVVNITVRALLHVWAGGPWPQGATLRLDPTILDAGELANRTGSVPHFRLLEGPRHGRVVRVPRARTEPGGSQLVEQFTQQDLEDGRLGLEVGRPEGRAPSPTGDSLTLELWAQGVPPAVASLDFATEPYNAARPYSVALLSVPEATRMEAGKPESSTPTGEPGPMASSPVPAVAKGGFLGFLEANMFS


Tests used:
[1] = target: T1, hu-MCSP(D3 domain)-avi-his; assay: SPR (ProteOn XPR36), IgG KD against parental M4-3/ML2
Protocol: (§1) Briefly, carboxymethylated dextran biosensor chips (CM5, GE Healthcare) were activated with N-ethyl-N′-(3-dimethylaminopropyl)-carbodiimide hydrochloride (EDC) and N-hydroxysuccinimide (NHS) according to the supplier's instructions. Anti-human F(ab′)2 fragment specific capture antibody was diluted with 10 mM sodium acetate, pH 5.0 at 50 μg/ml before injection at a flow rate of 10 μl/minute to achieve approximately up to 10.000 response units (RU) of coupled capture antibody. Following the injection of the capture antibody, 1 M ethanolamine was injected to block unreacted groups. For kinetics measurements, Fabs from bacterial supernatant or purified Fabs are injected at a flow rate of 10 ul/minute for 300 s and a dissociation of 300 s for capture baseline stabilization. […] The surface of the sensorchip was regenerated by injection of glycine pH 1.5 for 30 s at 90 ul/min followed by injection of NaOH for 20 s at the same flow rate. Association rates (kon) and dissociation rates (koff) were calculated using a simple one-to-one Langmuir binding model (ProteOn XPR36 Evaluation Software or Scrubber software (BioLogic)) by simultaneously fitting the association and dissociation sensorgrams. The equilibrium dissociation constant (KD) was calculated as the ratio koff/kon. […] Since CDR1 and 2 of the light chain were randomized independent from CDR3, the obtained CDRs were combined during IgG conversion.
(§2) In the IgG format affinities were measured again to the human MCSP antigen (SEQ ID NO. 390), in addition also to the cynomolgus homologue (SEQ ID NO. 389). Method exactly as described for the Fab fragments, just purified IgG from mammalian production were used.

[2] = target: T2, cynomolgus MCSP D3; assay: as above
Protocol: as §1, §2

Comparative binding affinity - Fold increase over parent [1] | Comparative binding affinity - Fold increase over parent [2] | Binder
4 fold | 2.9 fold | M4-3(B7)/ML2 (IgG) (antibody, V domains shown, Human IgG1 format) VH: QVQLQESGPGLVKPSQTLSLTCTVSGGSITSGYYWNWIRQHPGKGLEWIGYITFDGINNYNPSLKSRVTISRDTSKNQFSLKLSSVTAADTAVYYCADFDYWGQGTLVTVSS VL: DIQMTQSPSSLSASVGDRVTITCRASQGIRNYLNWYQQKPGKAPKLLIYYTSSLHSGVPSRFSGSGSGTDFTLTISSLQPEDFATYYCQQYSKLPWTFGQGTKVEIK
2.9 fold | 2 fold | M4-3/ML2 (C5/G3) (IgG) (antibody, V domains shown, Human IgG1 format) VH: QVQLQESGPGLVKPSQTLSLTCTVSGGSITSGYYWNWIRQHPGKGLEWIGYITYDGSNNYNPSLKSRVTISRDTSKNQFSLKLSSVTAADTAVYYCADFDYWGQGTLVTVSS VL: DIQMTQSPSSLSASVGDRVTITCRASRGIREYLNWYQQKPGKAPKLLIYYTGSLHSGVPSRFSGSGSGTDFTLTISSLQPEDFATYYCQQYSALPWTFGQGTKVEIK
2.2 fold | 2 fold | M4-3(B8)/ML2 (IgG) (antibody, V domains shown, Human IgG1 format) VH: QVQLQESGPGLVKPSQTLSLTCTVSGGSITSGYYWNWIRQHPGKGLEWIGYITFDGRNNYNPSLKSRVTISRDTSKNQFSLKLSSVTAADTAVYYCADFDYWGQGTLVTVSS VL: DIQMTQSPSSLSASVGDRVTITCRASQGIRNYLNWYQQKPGKAPKLLIYYTSSLHSGVPSRFSGSGSGTDFTLTISSLQPEDFATYYCQQYSKLPWTFGQGTKVEIK
4 fold | 3.3 fold | M4-3(C1)/ML2(E10) (IgG) (antibody, V domains shown, Human IgG1 format) VH: QVQLQESGPGLVKPSQTLSLTCTVSGGSITSGYYWNWIRQHPGKGLEWIGYITFDGSNNYNPSLKSRVTISRDTSKNQFSLKLSSVTAADTAVYYCADFDYWGQGTLVTVSS VL: DIQMTQSPSSLSASVGDRVTITCRASYGIRGYLNWYQQKPGKAPKLLIYYTSSLHSGVPSRFSGSGSGTDFTLTISSLQPEDFATYHCQQYSKLPWTFGQGTKVEIK
28.6 fold | 10 fold | M4-3(A7)/ML2(G3) (IgG) (antibody, V domains shown, Human IgG1 format) VH: QVQLQESGPGLVKPSQTLSLTCTVSGGSITDGYYWNWIRQHPGKGLEWIGYITFDGRNNYNPSLKSRVTISRDTSKNQFSLKLSSVTAADTAVYYCADFDYWGQGTLVTVSS VL: DIQMTQSPSSLSASVGDRVTITCRASQGIRNYLNWYQQKPGKAPKLLIYYTSSLHSGVPSRFSGSGSGTDYTLTISSLQPEDFATYYCQQYSALPWTFGQGTKVEIK
5 fold | 2 fold | M4-3/ML2 (C5) (IgG) (antibody, V domains shown, Human IgG1 format) VH: QVQLQESGPGLVKPSQTLSLTCTVSGGSITSGYYWNWIRQHPGKGLEWIGYITYDGSNNYNPSLKSRVTISRDTSKNQFSLKLSSVTAADTAVYYCADFDYWGQGTLVTVSS VL: DIQMTQSPSSLSASVGDRVTITCRASRGIREYLNWYQQKPGKAPKLLIYYTGSLHSGVPSRFSGSGSGTDFTLTISSLQPEDFATYYCQQYSELPWTFGQGTKVEIK
2 fold | 1 fold | M4-3/ML2 (E10) (IgG) (antibody, V domains shown, Human IgG1 format) VH: QVQLQESGPGLVKPSQTLSLTCTVSGGSITSGYYWNWIRQHPGKGLEWIGYITYDGSNNYNPSLKSRVTISRDTSKNQFSLKLSSVTAADTAVYYCADFDYWGQGTLVTVSS VL: DIQMTQSPSSLSASVGDRVTITCRASYGIRGYLNWYQQKPGKAPKLLIYYTSSLHSGVPSRFSGSGSGTDFTLTISSLQPEDFATYHCQQYSKLPWTFGQGTKVEIK
6.7 fold | 2.9 fold | M4-3(A7)/ML2(E10) (IgG) (antibody, V domains shown, Human IgG1 format) VH: QVQLQESGPGLVKPSQTLSLTCTVSGGSITDGYYWNWIRQHPGKGLEWIGYITFDGRNNYNPSLKSRVTISRDTSKNQFSLKLSSVTAADTAVYYCADFDYWGQGTLVTVSS VL: DIQMTQSPSSLSASVGDRVTITCRASYGIRGYLNWYQQKPGKAPKLLIYYTSSLHSGVPSRFSGSGSGTDFTLTISSLQPEDFATYHCQQYSKLPWTFGQGTKVEIK
6.7 fold | 3.3 fold | M4-3/ML2(G3) (IgG) (antibody, V domains shown, Human IgG1 format) VH: QVQLQESGPGLVKPSQTLSLTCTVSGGSITSGYYWNWIRQHPGKGLEWIGYITYDGSNNYNPSLKSRVTISRDTSKNQFSLKLSSVTAADTAVYYCADFDYWGQGTLVTVSS VL: DIQMTQSPSSLSASVGDRVTITCRASQGIRNYLNWYQQKPGKAPKLLIYYTSSLHSGVPSRFSGSGSGTDYTLTISSLQPEDFATYYCQQYSALPWTFGQGTKVEIK
2.2 fold | 2.5 fold | M4-3(C1)/ML2 (IgG) (antibody, V domains shown, Human IgG1 format) VH: QVQLQESGPGLVKPSQTLSLTCTVSGGSITSGYYWNWIRQHPGKGLEWIGYITFDGSNNYNPSLKSRVTISRDTSKNQFSLKLSSVTAADTAVYYCADFDYWGQGTLVTVSS VL: DIQMTQSPSSLSASVGDRVTITCRASQGIRNYLNWYQQKPGKAPKLLIYYTSSLHSGVPSRFSGSGSGTDFTLTISSLQPEDFATYYCQQYSKLPWTFGQGTKVEIK
5 fold | 2 fold | M4-3(D6)/ML2 (IgG) (antibody, V domains shown, Human IgG1 format) VH: QVQLQESGPGLVKPSQTLSLTCTVSGGSITSGYYWNWIRQHPGKGLEWIGYITFDGKNNYNPSLKSRVTISRDTSKNQFSLKLSSVTAADTAVYYCADFDYWGQGTLVTVSS VL: DIQMTQSPSSLSASVGDRVTITCRASQGIRNYLNWYQQKPGKAPKLLIYYTSSLHSGVPSRFSGSGSGTDFTLTISSLQPEDFATYYCQQYSKLPWTFGQGTKVEIK
10 fold | 6.7 fold | M4-3(C1)/ML2(C5) (IgG) (antibody, V domains shown, Human IgG1 format) VH: QVQLQESGPGLVKPSQTLSLTCTVSGGSITSGYYWNWIRQHPGKGLEWIGYITFDGSNNYNPSLKSRVTISRDTSKNQFSLKLSSVTAADTAVYYCADFDYWGQGTLVTVSS VL: DIQMTQSPSSLSASVGDRVTITCRASRGIREYLNWYQQKPGKAPKLLIYYTGSLHSGVPSRFSGSGSGTDFTLTISSLQPEDFATYYCQQYSELPWTFGQGTKVEIK
2.5 fold | 2 fold | M4-3(A7)/ML2 (IgG) (antibody, V domains shown, Human IgG1 format) VH: QVQLQESGPGLVKPSQTLSLTCTVSGGSITDGYYWNWIRQHPGKGLEWIGYITFDGRNNYNPSLKSRVTISRDTSKNQFSLKLSSVTAADTAVYYCADFDYWGQGTLVTVSS VL: DIQMTQSPSSLSASVGDRVTITCRASQGIRNYLNWYQQKPGKAPKLLIYYTSSLHSGVPSRFSGSGSGTDFTLTISSLQPEDFATYYCQQYSKLPWTFGQGTKVEIK
